Measured values taken from the Immune Epitope Database (IEDB).

Assays:
HLA-B*48:01 [1] = test: IEDB peptide-MHC binding, purified MHC/competitive/fluorescence; filed as Kd, often an IC50 or EC50 that approximates it; ≥ and ≤ were set here for values at or beyond the usual limits of such assays
HLA-A*01:01 [2] = test: IEDB peptide-MHC binding, purified MHC/direct/fluorescence; filed as Kd, often an IC50 or EC50 that approximates it; ≥ and ≤ were set here for values at or beyond the usual limits of such assays
HLA-A*02:01 [3] = test: as above
HLA-A*11:01 [4] = test: as above
HLA-A*26:01 = test: as above; conditions: source organism: Francisella tularensis subsp. tularensis FSC033
HLA-A*26:03 = test: as above; conditions: source organism: Francisella tularensis subsp. tularensis FSC033
HLA-A*31:01 [5] = test: as above
HLA-A*69:01 = test: as above
HLA-B*07:02 [6] = test: as above
HLA-B*08:02 = test: as above; conditions: source organism: Francisella tularensis subsp. tularensis FSC033
HLA-B*08:03 = test: as above; conditions: source organism: Francisella tularensis subsp. tularensis FSC033
HLA-B*27:05 = test: as above
HLA-B*40:01 = test: as above
HLA-B*44:02 = test: as above; conditions: source organism: Francisella tularensis subsp. holarctica LVS
HLA-B*57:01 = test: as above
HLA-B*58:01 [7] = test: as above
HLA-B*15:09 = test: IEDB peptide-MHC binding, purified MHC/competitive/fluorescence; filed as Kd, often an IC50 or EC50 that approximates it; ≥ and ≤ were set here for values at or beyond the usual limits of such assays
HLA-B*15:17 [8] = test: as above; conditions: source organism: Francisella tularensis subsp. tularensis FSC198
HLA-B*39:01 = test: as above; conditions: source organism: Francisella tularensis subsp. tularensis FSC198
HLA-A*01:01 [9] = test: IEDB peptide-MHC binding, purified MHC/competitive/fluorescence; ≥ and ≤ were set here for values at or beyond the usual limits of such assays; conditions: source organism: Homo sapiens
HLA-A*02:01 [10] = test: as above; conditions: source organism: Homo sapiens
HLA-A*03:01 [11] = test: as above; conditions: source organism: Homo sapiens
HLA-A*11:01 [12] = test: as above; conditions: source organism: Homo sapiens
HLA-A*24:02 = test: as above; conditions: source organism: Homo sapiens
HLA-A*25:01 = test: as above; conditions: source organism: Homo sapiens
HLA-A*29:02 = test: as above; conditions: source organism: Homo sapiens
HLA-A*31:01 [13] = test: as above; conditions: source organism: Homo sapiens
HLA-A*68:02 = test: as above; conditions: source organism: Homo sapiens
HLA-B*07:02 [14] = test: as above; conditions: source organism: Homo sapiens
HLA-B*08:01 = test: as above; conditions: source organism: Homo sapiens
HLA-B*14:02 = test: as above; conditions: source organism: Homo sapiens
HLA-B*18:01 [15] = test: as above; conditions: source organism: Homo sapiens
HLA-B*35:01 = test: as above; conditions: source organism: Homo sapiens
HLA-B*37:01 = test: as above; conditions: source organism: Homo sapiens
HLA-B*40:02 = test: as above; conditions: source organism: Homo sapiens
HLA-B*44:03 = test: as above; conditions: source organism: Homo sapiens
HLA-B*51:01 [16] = test: as above; conditions: source organism: Homo sapiens
HLA-B*53:01 = test: as above; conditions: source organism: Homo sapiens
HLA-B*58:01 [17] = test: as above; conditions: source organism: Homo sapiens
HLA-A*03:01 [18] = test: IEDB peptide-MHC binding, purified MHC/direct/fluorescence; filed as Kd, often an IC50 or EC50 that approximates it; ≥ and ≤ were set here for values at or beyond the usual limits of such assays; conditions: source organism: Giardia lamblia ATCC 50803
HLA-A*30:01 = test: as above; conditions: source organism: Giardia lamblia ATCC 50803
HLA-B*15:01 = test: as above; conditions: source organism: Giardia lamblia ATCC 50803
HLA-B*15:17 [19] = test: as above; conditions: source organism: Giardia lamblia ATCC 50803
HLA-B*18:01 [20] = test: as above; conditions: source organism: Giardia lamblia ATCC 50803
HLA-B*46:01 = test: as above; conditions: source organism: Giardia lamblia ATCC 50803
HLA-B*48:01 [21] = test: as above; conditions: source organism: Giardia lamblia ATCC 50803
HLA-B*51:01 [22] = test: as above; conditions: source organism: Giardia lamblia ATCC 50803
HLA-C*03:03 = test: as above; conditions: source organism: Giardia lamblia ATCC 50803
[23] = source organism: Francisella tularensis subsp. holarctica LVS
[24] = source organism: Francisella tularensis subsp. tularensis FSC198
[25] = source organism: Giardia lamblia ATCC 50803

Sequence	IC50 (HLA-A*01:01 [9]) [µM]	IC50 (HLA-A*02:01 [10]) [µM]	IC50 (HLA-A*03:01 [11]) [µM]	IC50 (HLA-A*11:01 [12]) [µM]	IC50 (HLA-A*24:02) [µM]	IC50 (HLA-A*25:01) [µM]	IC50 (HLA-A*29:02) [µM]	IC50 (HLA-A*31:01 [13]) [µM]	IC50 (HLA-A*68:02) [µM]	IC50 (HLA-B*07:02 [14]) [µM]	IC50 (HLA-B*08:01) [µM]	IC50 (HLA-B*14:02) [µM]	IC50 (HLA-B*18:01 [15]) [µM]	IC50 (HLA-B*35:01) [µM]	IC50 (HLA-B*37:01) [µM]	IC50 (HLA-B*40:02) [µM]	IC50 (HLA-B*44:03) [µM]	IC50 (HLA-B*51:01 [16]) [µM]	IC50 (HLA-B*53:01) [µM]	IC50 (HLA-B*58:01 [17]) [µM]	further results
WQLSGVVPL																					Kd (HLA-B*48:01 [1]; source organism: Toxoplasma gondii RH): 0.0299 µM
REIGDISYL																					Kd (HLA-A*01:01 [2]; [23]): ≥ 20 µM; Kd (HLA-A*02:01 [3]; [23]): ≥ 20 µM; Kd (HLA-A*11:01 [4]; [23]): ≥ 20 µM; Kd (HLA-A*26:01): ≥ 20 µM; Kd (HLA-A*26:03): ≥ 20 µM; Kd (HLA-A*31:01 [5]; [23]): ≥ 20 µM; Kd (HLA-A*69:01; [23]): ≥ 20 µM; Kd (HLA-B*07:02 [6]; [23]): ≥ 20 µM; Kd (HLA-B*08:02): ≥ 20 µM; Kd (HLA-B*08:03): ≥ 20 µM; Kd (HLA-B*27:05; [23]): ≥ 20 µM; Kd (HLA-B*40:01; [23]): ≤ 0.001 µM; Kd (HLA-B*44:02): ≥ 20 µM; Kd (HLA-B*57:01; [23]): ≥ 20 µM; Kd (HLA-B*58:01 [7]; [23]): ≥ 20 µM; Kd (HLA-B*15:09; [24]): 2 µM; Kd (HLA-B*15:17 [8]): ≥ 20 µM; Kd (HLA-B*39:01): 0.309 µM; Kd (HLA-B*48:01 [1]; [24]): ≥ 20 µM
RQSSGSSSSGF	≥ 20	≥ 20	≥ 20	≥ 20	≥ 20	≥ 20	≥ 20	≥ 20	≥ 20	≥ 20	≥ 20	≥ 20	≥ 20	≥ 20	0.317	2.06	≥ 20	≥ 20	≥ 20	≥ 20	
LVTMGTGTFGR	≥ 20	≥ 20	≥ 20	0.386	≥ 20	≥ 20	≥ 20	≥ 20	≥ 20	13.7	≥ 20	≥ 20	≥ 20	0.975	≥ 20	≥ 20	≥ 20	≥ 20	≥ 20	≥ 20	
ELFARSSDPR	≥ 20	≥ 20	≥ 20	≥ 20	≥ 20	≥ 20	≥ 20	15.5	5.66	≥ 20	≥ 20	≥ 20	≥ 20	≥ 20	≥ 20	≥ 20	≥ 20	≥ 20	≥ 20	≥ 20	
VAAKGAPAL																					Kd (HLA-A*01:01 [2]; [25]): ≥ 20 µM; Kd (HLA-A*02:01 [3]; [25]): ≥ 20 µM; Kd (HLA-A*03:01 [18]): ≥ 20 µM; Kd (HLA-A*11:01 [4]; [25]): ≥ 20 µM; Kd (HLA-A*30:01): ≥ 20 µM; Kd (HLA-A*31:01 [5]; [25]): ≥ 20 µM; Kd (HLA-A*69:01; [25]): 0.0677 µM; Kd (HLA-B*07:02 [6]; [25]): 0.279 µM; Kd (HLA-B*15:01): ≥ 20 µM; Kd (HLA-B*15:17 [19]): 0.0071 µM; Kd (HLA-B*18:01 [20]): ≥ 20 µM; Kd (HLA-B*27:05; [25]): ≥ 20 µM; Kd (HLA-B*40:01; [25]): ≥ 20 µM; Kd (HLA-B*46:01): ≥ 20 µM; Kd (HLA-B*48:01 [21]): 5.66 µM; Kd (HLA-B*51:01 [22]): ≥ 20 µM; Kd (HLA-B*57:01; [25]): ≥ 20 µM; Kd (HLA-B*58:01 [7]; [25]): 0.952 µM; Kd (HLA-C*03:03): 0.003 µM; Kd (HLA-B*15:09; [25]): ≥ 20 µM
